Measurements as given in publication PMC12663309 (2025).

Target: human NEK7 recombinant protein (HY-P75935, MCE) (human, UniProt Q8TDX7 1-302, RED-NHS dye label (in the MST only))
Assay: MST

Chain of human NEK7 recombinant protein (HY-P75935, MCE) (Q8TDX7 whole entry, one chain of several): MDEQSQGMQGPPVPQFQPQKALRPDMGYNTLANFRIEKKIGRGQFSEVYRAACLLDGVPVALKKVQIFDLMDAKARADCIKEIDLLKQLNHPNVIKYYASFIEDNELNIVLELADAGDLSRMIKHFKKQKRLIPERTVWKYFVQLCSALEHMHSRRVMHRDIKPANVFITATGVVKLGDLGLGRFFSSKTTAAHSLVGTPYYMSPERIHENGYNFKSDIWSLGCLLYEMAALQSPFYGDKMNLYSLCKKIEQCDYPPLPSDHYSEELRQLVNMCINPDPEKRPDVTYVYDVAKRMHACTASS

- Kd: 19.5 µM
B1: human SDHB recombinant protein (Ag29868, Proteintech) (natural protein)
chain: AQTAAATAPRIKKFAIYRWDPDKAGDKPHMQTYEVDLNKCGPMVLDALIKIKNEVDSTLTFRRSCREGICGSCAMNINGGNTLACTRRIDTNLNKVSKIYPLPHMYVIKDLVPDLSNFYAQYKSIEPYLKKKDESQEGKQQYLQSIEEREKLDGLYECILCACCSTSCPSYWWNGDKYLGPAVLMQAYRWMIDSRDDFTEERLAKLQDPFSLYRCHTIMNCTRTCPKGLNPGKAIAEIKKMMATYKEKKASV
